Tests used:
[1] = target: integrin α5β1 (mouse (endogenous in mouse synovial cells)) (UniProt P11688); assay: flow cytometry on cells; mouse synovial cells first incubated with anti-αvβ3, anti-α5β1 or both blocking antibodies for half an hour at 4 °C, washed, then 75 uM HM-3-Fc for 1 h at 4 °C; FITC-protein A as probe
[2] = target: integrin αvβ3 (mouse (endogenous in mouse synovial cells)) (UniProt P43406); assay: as above
[3] = target: integrin α5β1 (mouse (endogenous in mouse synovial cells)) (UniProt P11688); assay: flow cytometry on cells; mouse synovial cells blocked with 1% BSA, incubated with 1, 10 or 75 uM HM-3-Fc for 1 h at 4 °C, no blocking antibody; FITC-protein A as probe for the Fc part
[4] = target: integrin αvβ3 (mouse (endogenous in mouse synovial cells)) (UniProt P43406); assay: as above

Sequence of UniProt P11688 (P11688 45-1053, chain 1 of 2): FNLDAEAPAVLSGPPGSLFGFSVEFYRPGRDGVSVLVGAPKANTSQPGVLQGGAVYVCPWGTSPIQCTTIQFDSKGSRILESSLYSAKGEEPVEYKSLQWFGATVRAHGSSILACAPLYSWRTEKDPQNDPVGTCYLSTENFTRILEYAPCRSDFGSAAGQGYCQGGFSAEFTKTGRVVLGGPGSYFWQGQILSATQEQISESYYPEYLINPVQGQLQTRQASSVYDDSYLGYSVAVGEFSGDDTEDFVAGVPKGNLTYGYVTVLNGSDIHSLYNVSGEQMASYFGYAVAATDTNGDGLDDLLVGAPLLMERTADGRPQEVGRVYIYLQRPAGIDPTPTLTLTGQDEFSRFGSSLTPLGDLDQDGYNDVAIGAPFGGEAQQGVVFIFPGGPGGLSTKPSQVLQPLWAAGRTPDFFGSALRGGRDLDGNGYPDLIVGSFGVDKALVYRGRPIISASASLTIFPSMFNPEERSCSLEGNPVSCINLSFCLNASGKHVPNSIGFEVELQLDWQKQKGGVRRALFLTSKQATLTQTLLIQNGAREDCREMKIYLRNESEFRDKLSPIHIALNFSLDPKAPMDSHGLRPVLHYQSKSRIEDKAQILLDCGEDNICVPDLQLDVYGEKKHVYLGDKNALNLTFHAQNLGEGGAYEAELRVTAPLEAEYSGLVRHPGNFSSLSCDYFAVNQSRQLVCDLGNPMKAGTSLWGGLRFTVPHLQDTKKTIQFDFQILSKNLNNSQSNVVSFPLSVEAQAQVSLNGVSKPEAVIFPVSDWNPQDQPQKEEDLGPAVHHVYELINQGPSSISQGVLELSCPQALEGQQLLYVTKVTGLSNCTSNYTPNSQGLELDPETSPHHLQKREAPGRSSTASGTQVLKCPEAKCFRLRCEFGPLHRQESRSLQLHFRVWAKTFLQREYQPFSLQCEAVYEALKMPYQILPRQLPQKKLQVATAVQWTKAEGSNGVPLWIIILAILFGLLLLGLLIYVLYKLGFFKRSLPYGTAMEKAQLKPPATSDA
Sequence of UniProt P11688 (P09055 21-798, chain 2 of 2, further chain): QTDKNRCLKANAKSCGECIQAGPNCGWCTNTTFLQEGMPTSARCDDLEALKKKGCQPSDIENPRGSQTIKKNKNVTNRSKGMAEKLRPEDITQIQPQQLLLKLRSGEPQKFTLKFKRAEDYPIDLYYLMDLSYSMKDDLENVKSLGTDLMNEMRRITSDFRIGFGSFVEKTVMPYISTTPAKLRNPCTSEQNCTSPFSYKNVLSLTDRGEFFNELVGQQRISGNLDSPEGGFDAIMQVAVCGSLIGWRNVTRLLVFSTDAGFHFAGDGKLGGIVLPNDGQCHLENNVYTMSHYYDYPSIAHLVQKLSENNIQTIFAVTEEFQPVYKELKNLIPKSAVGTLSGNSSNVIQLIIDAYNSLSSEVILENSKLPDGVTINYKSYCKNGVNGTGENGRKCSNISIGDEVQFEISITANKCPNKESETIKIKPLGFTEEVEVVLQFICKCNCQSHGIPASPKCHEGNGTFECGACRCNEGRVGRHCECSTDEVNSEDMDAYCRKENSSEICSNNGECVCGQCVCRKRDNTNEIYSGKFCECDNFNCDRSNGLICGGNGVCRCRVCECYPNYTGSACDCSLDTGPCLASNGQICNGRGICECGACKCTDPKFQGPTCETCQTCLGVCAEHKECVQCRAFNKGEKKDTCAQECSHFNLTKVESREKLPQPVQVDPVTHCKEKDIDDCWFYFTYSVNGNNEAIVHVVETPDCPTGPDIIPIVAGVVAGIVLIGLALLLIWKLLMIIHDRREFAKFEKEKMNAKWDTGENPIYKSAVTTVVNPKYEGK
Sequence of UniProt P43406 (P43406 31-1044, chain 1 of 2): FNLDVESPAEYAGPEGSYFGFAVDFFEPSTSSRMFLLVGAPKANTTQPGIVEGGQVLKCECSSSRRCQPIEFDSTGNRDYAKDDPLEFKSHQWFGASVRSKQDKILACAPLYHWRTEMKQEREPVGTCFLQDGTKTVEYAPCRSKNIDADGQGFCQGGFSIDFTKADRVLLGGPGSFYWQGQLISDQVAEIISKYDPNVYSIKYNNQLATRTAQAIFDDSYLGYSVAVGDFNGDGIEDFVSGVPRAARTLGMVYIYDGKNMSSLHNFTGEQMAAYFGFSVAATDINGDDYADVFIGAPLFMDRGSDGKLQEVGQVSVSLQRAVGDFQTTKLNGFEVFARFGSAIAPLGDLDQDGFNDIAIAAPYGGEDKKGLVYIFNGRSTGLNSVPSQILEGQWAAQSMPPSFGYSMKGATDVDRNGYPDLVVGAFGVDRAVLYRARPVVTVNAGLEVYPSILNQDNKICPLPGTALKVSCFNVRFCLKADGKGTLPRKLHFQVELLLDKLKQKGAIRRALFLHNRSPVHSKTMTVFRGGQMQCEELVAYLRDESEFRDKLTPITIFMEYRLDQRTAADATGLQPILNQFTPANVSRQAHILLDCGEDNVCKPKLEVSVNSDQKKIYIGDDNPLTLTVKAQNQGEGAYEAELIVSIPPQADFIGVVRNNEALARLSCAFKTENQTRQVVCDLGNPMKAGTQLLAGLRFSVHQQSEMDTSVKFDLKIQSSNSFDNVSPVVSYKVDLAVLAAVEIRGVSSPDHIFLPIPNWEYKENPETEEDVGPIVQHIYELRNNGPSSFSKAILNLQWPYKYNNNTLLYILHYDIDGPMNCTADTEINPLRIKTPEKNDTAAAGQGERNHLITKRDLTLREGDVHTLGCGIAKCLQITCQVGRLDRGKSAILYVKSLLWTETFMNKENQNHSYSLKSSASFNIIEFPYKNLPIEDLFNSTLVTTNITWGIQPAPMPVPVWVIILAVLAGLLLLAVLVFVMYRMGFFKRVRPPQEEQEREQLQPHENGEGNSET
Sequence of UniProt P43406 (O54890 26-787, chain 2 of 2, further chain): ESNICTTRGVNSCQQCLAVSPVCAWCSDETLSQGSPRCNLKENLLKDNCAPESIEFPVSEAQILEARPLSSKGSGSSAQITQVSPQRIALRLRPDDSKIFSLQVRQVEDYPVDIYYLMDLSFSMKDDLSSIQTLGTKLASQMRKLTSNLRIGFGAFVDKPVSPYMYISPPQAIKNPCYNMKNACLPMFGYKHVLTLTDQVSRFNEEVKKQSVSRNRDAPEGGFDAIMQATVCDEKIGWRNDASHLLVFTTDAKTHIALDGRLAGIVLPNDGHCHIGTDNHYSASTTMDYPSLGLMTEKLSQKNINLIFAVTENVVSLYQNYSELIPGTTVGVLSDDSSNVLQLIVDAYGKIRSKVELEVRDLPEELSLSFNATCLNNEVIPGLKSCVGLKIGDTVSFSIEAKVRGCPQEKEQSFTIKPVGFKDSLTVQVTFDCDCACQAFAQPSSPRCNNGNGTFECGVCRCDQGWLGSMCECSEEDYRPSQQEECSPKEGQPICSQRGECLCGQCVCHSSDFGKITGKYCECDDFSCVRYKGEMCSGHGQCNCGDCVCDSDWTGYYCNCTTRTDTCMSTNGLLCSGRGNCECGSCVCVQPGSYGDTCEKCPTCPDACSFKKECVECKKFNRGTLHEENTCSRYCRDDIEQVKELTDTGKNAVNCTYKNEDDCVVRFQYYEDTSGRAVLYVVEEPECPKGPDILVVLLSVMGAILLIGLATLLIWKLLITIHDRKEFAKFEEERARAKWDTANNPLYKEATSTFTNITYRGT

Q: Which results are given for HM-3-Fc fusion protein?
A: binding rate (percent of cells positive) at 75 umol/L after block of αvβ3 and α5β1 together [1]: 0.01%; binding rate (percent of cells positive) at 75 umol/L after block with an anti-α5β1 antibody [1]: 11.2%; binding rate (percent of cells positive) at 75 umol/L after block of αvβ3 and α5β1 together [2]: 0.01%; binding rate (percent of cells positive) at 75 umol/L after block with an anti-αvβ3 antibody [2]: 1.4%; binding rate (percent of cells positive) at 75 umol/L, unblocked cells that carry both integrins [3]: 70.7%; binding rate (percent of cells positive) at 75 umol/L, unblocked cells that carry both integrins [4]: 70.7%
